Experimental data taken from patent EP4663662A1.
Where two headings read alike, the source gives them in different places.

Tests used:
[1] = biological target: human CD3 on cells (Jurkat cells, human PBMCs) (human) (UniProt P07766); experiment: flow cytometry, human PBMCs
human BCMA (human) [2] = biological target: human BCMA (human) (UniProt Q02223); experiment: flow cytometry, RPMI8226 cells (express BCMA and GPRC5D)
[3] = biological target: cynomolgus monkey CD3 on cyno PBMCs (cynomolgus monkey) (UniProt Q95LI5); experiment: flow cytometry, cyno PBMCs
soluble BCMA = soluble BCMA (UniProt Q02223); experiment: cell-based or functional assay
[4] = biological target: human CD3 on cells (Jurkat cells, human PBMCs) (human) (UniProt P07766); experiment: flow cytometry, Jurkat cells
[5] = biological target: cynomolgus monkey BCMA protein (Acro, Cat. No. BCA-C52H7) (cynomolgus monkey); experiment: SPR (Biacore), antibody captured by anti-human IgG Fc, BCMA as analyte, 1:1 fit
[6] = biological target: human BCMA protein (Acro, Cat. No. BCA-H522y) (human) (UniProt Q02223); experiment: as above
[7] = biological target: cynomolgus monkey CD3 protein (Acro, Cat. No. CDD-C52W4) (cynomolgus monkey) (UniProt Q95LI5); experiment: SPR (Biacore), CD3 immobilised on CM5, antibody as analyte, 1:1 fit
[8] = biological target: human CD3 protein (Acro, Cat. No. CDD-H52W1) (human) (UniProt P07766); experiment: as above
human BCMA (human) [9] = biological target: human BCMA (human) (UniProt Q02223); experiment: flow cytometry, human BCMA-CHOK1 cells
human GPRC5D (human) [10] = biological target: human GPRC5D (human) (UniProt Q9NZD1); experiment: flow cytometry, human GPRC5D-CHOK1 cells
[11] = biological target: cynomolgus monkey BCMA (cynomolgus monkey); experiment: flow cytometry, cynomolgus BCMA-CHOK1 cells
human BCMA (human) [12] = biological target: human BCMA (human) (UniProt Q02223); experiment: flow cytometry, NCI-H929 cells (express BCMA and GPRC5D)
human BCMA (human) [13] = biological target: human BCMA (human) (UniProt Q02223); experiment: flow cytometry, human BCMA-CHOK1 cells; control
human GPRC5D (human) [14] = biological target: human GPRC5D (human) (UniProt Q9NZD1); experiment: flow cytometry, human GPRC5D-CHOK1 cells; control
human BCMA (human) [15] = biological target: human BCMA (human) (UniProt Q02223); experiment: flow cytometry, human BCMA-CHOK1 cells; control; remark: listed apart in the source
[16] = biological target: cynomolgus monkey GPRC5D (cynomolgus monkey); experiment: flow cytometry, cynomolgus GPRC5D-CHOK1 cells; control
human GPRC5D (human) [17] = biological target: human GPRC5D (human) (UniProt Q9NZD1); experiment: flow cytometry, NCI-H929 cells; control
[18] = biological target: cynomolgus monkey BCMA (cynomolgus monkey); experiment: flow cytometry, cynomolgus BCMA-CHOK1 cells; control
[19] = biological target: cynomolgus monkey BCMA (cynomolgus monkey); experiment: as above; remark: listed apart in the source
[20] = biological target: cynomolgus monkey GPRC5D (cynomolgus monkey); experiment: flow cytometry, cynomolgus GPRC5D-CHOK1 cells; control; remark: listed apart in the source
human BCMA (human) [21] = biological target: human BCMA (human) (UniProt Q02223); experiment: flow cytometry, human BCMA-CHOK1 cells; negative control
human GPRC5D (human) [22] = biological target: human GPRC5D (human) (UniProt Q9NZD1); experiment: flow cytometry, human GPRC5D-CHOK1 cells; negative control
[23] = biological target: human CD3 on cells (Jurkat cells, human PBMCs) (human) (UniProt P07766); experiment: flow cytometry, human PBMCs; negative control
[24] = biological target: dual targets human BCMA and human GPRC5D on tumor cells (NCI-H929, RPMI8226) (human); experiment: flow cytometry, RPMI8226 cells (express BCMA and GPRC5D); negative control
[25] = biological target: dual targets human BCMA and human GPRC5D on tumor cells (NCI-H929, RPMI8226) (human); experiment: flow cytometry, NCI-H929 cells (express BCMA and GPRC5D); negative control
[26] = biological target: cynomolgus monkey CD3 on cyno PBMCs (cynomolgus monkey) (UniProt Q95LI5); experiment: flow cytometry, cyno PBMCs; negative control
[27] = biological target: human CD3 on cells (Jurkat cells, human PBMCs) (human) (UniProt P07766); experiment: flow cytometry, Jurkat cells; negative control

Chain of human BCMA (human) (Q02223 whole entry): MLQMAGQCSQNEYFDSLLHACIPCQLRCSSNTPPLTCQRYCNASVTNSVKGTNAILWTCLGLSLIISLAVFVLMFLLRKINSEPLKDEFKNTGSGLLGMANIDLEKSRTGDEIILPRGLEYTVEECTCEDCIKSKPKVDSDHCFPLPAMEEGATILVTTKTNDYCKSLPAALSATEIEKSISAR
Chain of human GPRC5D (human) (Q9NZD1 whole entry): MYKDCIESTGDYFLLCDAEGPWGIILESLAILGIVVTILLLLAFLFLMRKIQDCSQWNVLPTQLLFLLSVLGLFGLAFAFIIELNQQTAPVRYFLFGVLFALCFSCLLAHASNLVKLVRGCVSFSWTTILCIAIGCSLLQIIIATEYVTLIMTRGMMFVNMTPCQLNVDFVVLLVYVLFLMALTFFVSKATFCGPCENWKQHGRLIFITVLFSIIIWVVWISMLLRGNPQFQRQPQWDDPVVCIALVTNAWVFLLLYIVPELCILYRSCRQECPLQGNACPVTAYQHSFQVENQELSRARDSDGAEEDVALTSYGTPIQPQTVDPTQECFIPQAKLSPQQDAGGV
Chain of cynomolgus monkey CD3 protein (Acro, Cat. No. CDD-C52W4) (cynomolgus monkey) (Q95LI5 22-117): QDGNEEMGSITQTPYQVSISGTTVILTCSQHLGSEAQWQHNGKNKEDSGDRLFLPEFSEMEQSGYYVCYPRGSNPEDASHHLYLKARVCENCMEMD
Chain of cynomolgus monkey CD3 on cyno PBMCs (cynomolgus monkey) (Q95LI5 22-198): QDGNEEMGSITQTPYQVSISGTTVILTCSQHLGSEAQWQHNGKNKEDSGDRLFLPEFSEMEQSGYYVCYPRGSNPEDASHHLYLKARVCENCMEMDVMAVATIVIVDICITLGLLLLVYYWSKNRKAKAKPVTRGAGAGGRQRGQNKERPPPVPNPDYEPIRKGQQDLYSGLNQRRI
Chain of human CD3 protein (Acro, Cat. No. CDD-H52W1) (human) (P07766 23-126): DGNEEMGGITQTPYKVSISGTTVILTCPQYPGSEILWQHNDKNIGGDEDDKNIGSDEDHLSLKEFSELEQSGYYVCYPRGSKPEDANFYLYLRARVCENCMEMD
Chain of human BCMA protein (Acro, Cat. No. BCA-H522y) (human) (Q02223 1-54 limits assumed): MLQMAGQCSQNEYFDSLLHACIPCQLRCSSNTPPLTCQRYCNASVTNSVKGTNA
Chain of cynomolgus monkey BCMA (cynomolgus monkey) (Q02223 other isoform, or with tags, fused parts or gaps): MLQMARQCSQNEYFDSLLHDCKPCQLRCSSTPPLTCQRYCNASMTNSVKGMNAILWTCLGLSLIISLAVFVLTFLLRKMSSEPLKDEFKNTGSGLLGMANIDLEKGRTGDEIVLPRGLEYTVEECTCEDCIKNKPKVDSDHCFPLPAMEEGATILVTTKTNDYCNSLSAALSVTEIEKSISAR
Chain of human CD3 on cells (Jurkat cells, human PBMCs) (human) (P07766 23-207): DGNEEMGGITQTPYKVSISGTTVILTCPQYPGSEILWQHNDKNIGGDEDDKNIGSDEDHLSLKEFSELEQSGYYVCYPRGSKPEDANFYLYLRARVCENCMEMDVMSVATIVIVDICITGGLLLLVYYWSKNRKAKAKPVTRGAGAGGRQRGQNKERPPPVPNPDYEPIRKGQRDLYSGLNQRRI
Chain of dual targets human BCMA and human GPRC5D on tumor cells (NCI-H929, RPMI8226) (human) (chain, as listed by the source, chain 1 of 2): as the sequence (Q02223 whole entry) above
Chain of dual targets human BCMA and human GPRC5D on tumor cells (NCI-H929, RPMI8226) (human) (chain, as listed by the source, chain 2 of 2): as the sequence (Q9NZD1 whole entry) above
Chain of soluble BCMA (Q02223 1-54 limits assumed): as the sequence (Q02223 1-54 limits assumed) above
Chain of cynomolgus monkey GPRC5D (cynomolgus monkey) (Q9NZD1 other isoform, or with tags, fused parts or gaps): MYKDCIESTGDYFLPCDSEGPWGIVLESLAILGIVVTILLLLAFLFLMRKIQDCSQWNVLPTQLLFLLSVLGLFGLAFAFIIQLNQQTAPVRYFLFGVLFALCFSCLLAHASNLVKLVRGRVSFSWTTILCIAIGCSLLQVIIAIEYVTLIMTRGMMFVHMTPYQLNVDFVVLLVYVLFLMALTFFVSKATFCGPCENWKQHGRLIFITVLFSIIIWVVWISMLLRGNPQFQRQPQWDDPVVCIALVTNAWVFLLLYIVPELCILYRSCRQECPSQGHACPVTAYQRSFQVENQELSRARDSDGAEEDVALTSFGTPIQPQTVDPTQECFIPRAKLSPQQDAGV

Teclistamab analogue (BCMA/CD3) (bispecific antibody)
EC50 [1]: 6.06 nM
Top MFI [1]: 672 MFI
EC50 (human BCMA (human) [2]): 1.17 nM
Top MFI (human BCMA (human) [2]): 169 MFI
EC50 [3]: 55.8 nM
Top MFI [3]: 2060 MFI
Ratio (EC50) of TDCC on NCI-H929, 2.5 ug/ml BCMA against 0 ug/ml BCMA (soluble BCMA): 21 fold
fold change of TDCC EC50 on NCI-H929 in the presence of 2500 ng/ml soluble BCMA (soluble BCMA): 25 fold
EC50 [4]: 3.22 nM
Top MFI [4]: 825 MFI
Kd [5]: 8.49 nM
koff [5]: 0.0235 s⁻¹
kon [5]: 2.77e+06 M⁻¹ s⁻¹
Kd [6]: 0.379 nM
koff [6]: 0.00135 s⁻¹
kon [6]: 3.55e+06 M⁻¹ s⁻¹
Kd [7]: 21.1 nM
koff [7]: 0.00336 s⁻¹
kon [7]: 159000 M⁻¹ s⁻¹
Kd [8]: 21 nM
koff [8]: 0.00522 s⁻¹
kon [8]: 248000 M⁻¹ s⁻¹
EC50 (human BCMA (human) [9]): 2.63 nM
Top MFI (human BCMA (human) [9]): 2280 MFI
Top MFI (human GPRC5D (human) [10]): 160 MFI
EC50 [11]: 15.3 nM
Top MFI [11]: 1770 MFI
EC50 (human BCMA (human) [12]): 2.43 nM
Top MFI (human BCMA (human) [12]): 669 MFI

IgG1 AA (antibody)
Top MFI (human BCMA (human) [13]): 89.1 MFI
Top MFI (human GPRC5D (human) [14]): 36 MFI
Top MFI (human BCMA (human) [15]): 232 MFI
Top MFI [16]: 85 MFI
Top MFI (human GPRC5D (human) [17]): 178 MFI
Top MFI [18]: 82.6 MFI
Top MFI [19]: 382 MFI
Top MFI [20]: 1840 MFI

hIgG1 LALA isotype (Biointron, Cat. No. B109802) (antibody)
Top MFI (human BCMA (human) [21]): 119 MFI
Top MFI (human GPRC5D (human) [22]): 100 MFI
Top MFI [23]: 96.1 MFI
Top MFI [24]: 112 MFI
Top MFI [25]: 104 MFI
Top MFI [26]: 93.3 MFI
Top MFI [27]: 77.6 MFI

Talquetamab analogue (GPRC5D/CD3) (bispecific antibody)
Kd [7]: 22.2 nM
koff [7]: 0.00379 s⁻¹
kon [7]: 170000 M⁻¹ s⁻¹
Kd [8]: 18 nM
koff [8]: 0.00201 s⁻¹
kon [8]: 112000 M⁻¹ s⁻¹
